# Measured values as given in the RNAGym collection of RNA variant scans (doi:10.7554/elife.90254).
# B1: OR4K15 (parent)
# chain: GUUAACGGUCAUAGGCCAUGGAAACUAGGAGCACCAUUUCGCUGCCAGUGAAGAAAUGAACAAAGAAAAUCUGGGCCAGGCAGGCAUCAAAAGAAAUAGUCUUGCGCUCAACCAGAAAGUCUGUAAUCAUUUUAAGGGUA
# Variants of: B1
# Assay: self-cleavage, relative activity (ratio to wild type); higher = more cleavage; in vitro, sequencing; the parent is a self-cleaving ribozyme
row,Variant,self-cleavage
1,A52G A64G,0.9
2,A52G A64C,2.64
3,A52G A64U,0.82
4,A51G A67G,1.07
5,A51U A110G,0.23
6,A52C U120C,0.58
7,U49C G119A,1.6
8,A51G,1.36
9,A51C,1.43
10,A51U,1.5
11,A52G A69U,1.25
12,A51G U57C,0.93
13,A51G A62C,1.58
14,A51G A62G,0.33
15,A51G C61G,0.99
16,U49A U57C,1.11
17,U49A U57G,0.46
18,U49A A111G,0.01
19,U49A A111C,0.01
20,A51U U132G,1.49
21,A51U U132C,1.06
22,A51G A95G,1.7
23,A51G A111G,0.03
24,A51U A55U,1.52

row,Variant,self-cleavage
1,A51C A95U,1.79
2,A51C A95G,1.65
3,G50C A116G,0.9
4,A51G A59U,1.74
5,A51G A89U,1.41
6,A51G A89G,0.95
7,U49C A111G,0.02
8,U49C A134U,1.2
9,A51U U72A,0.45
10,A51U U72C,0.23
11,U49C U103A,0.71
12,U49C U87A,2.09
13,U49A A114G,0.25
14,A51C U131C,1.28
15,U49C A135U,2.28
16,A51G G136A,2
17,U49C A62G,1.57
18,G48A U49C,1.73
19,A51G U133A,1.15
20,A51G U133G,1.24
21,A52G A89U,1.7
22,A52G A89G,1.84
23,U49C C105A,0.03
24,A51G U131C,1.25

row,Variant,self-cleavage
1,A51G U131G,1.08
2,A51G G74U,0.37
3,U49C A86G,1.03
4,U49C A86U,1.68
5,U49A A86G,1.19
6,A51U A78U,0.36
7,A51G A66G,1.5
8,G48U A56G,1.4
9,G50U A66U,2.16
10,G48C,1.46
11,G48U,1.61
12,U49A A117G,0.49
13,A52G A59G,1.13
14,A52G A59U,1.28
15,G50A A117G,1.92
16,A51G U103C,1.09
17,A51G U124G,1.05
18,A52G A78G,0.28
19,U49A U122C,0.56
20,U49A U122A,1.32
21,A51U A52G,0.93
22,A51U A52U,1.99
23,U49C A51G,0.9
24,U49C A51U,0.99

row,Variant,self-cleavage
1,U49C A51C,0.34
2,U49A A64G,1.2
3,A52C A67U,1.67
4,A51G A60G,1.2
5,A51G G84A,1.78
6,A51U A125G,0.42
7,A51U A125U,1.64
8,U49C A94G,1.44
9,A52C A64G,1.38
10,A51U U130A,1.4
11,A51U U130C,1.62
12,A52C A111G,0
13,U49A A126U,1.59
14,A51G A96U,0.46
15,A51U U120C,0.47
16,A51G C128U,2.26
17,U49A A95G,1.76
18,A51G A126G,0.71
19,G50U U124A,0.91
20,U49C A55U,1.67
21,U49A G75C,0.07
22,U49A A63G,1.46
23,U49A A67G,1.13
24,U49A U131C,1.01

row,Variant,self-cleavage
1,A52C A129G,0.62
2,U49C,1.12
3,U49A,1.05
4,U49G,1.13
5,A51U G137A,1.43
6,G48A U133C,2.78
7,A51G A56G,1.22
8,U49G A66G,1.77
9,U49A A82G,0.52
10,A51U A91G,0.5
11,G50A U108A,0.01
12,A52G A98G,0.8
13,G48A U120C,1.38
14,A51U U102C,1.99
15,U49A A129G,0.63
16,U49A U70C,0.3
17,G50U A51U,1.95
18,U49A U139C,1.97
19,A51G U108C,0.02
20,A51G U122A,1.85
21,A52C A118G,0.72
22,A51C U57G,1.26
23,U49C U72A,0.15
24,A51G U97C,1.75

row,Variant,self-cleavage
1,G48A U102A,1.1
2,A51U A59G,0.95
3,G50A A60C,1.9
4,U49A A118U,0.7
5,A51G A117U,0.52
6,A51G A117G,2.07
7,U49A A56G,1.74
8,U49G A92G,0.7
9,A52C A91G,1.96
10,A51G C105U,0.12
11,G50A G104A,0.1
12,U49C G79A,0.13
13,A51G A118G,1.29
14,A51U A82G,0.68
15,U49A C61U,1.38
16,A51G C77U,1.46
17,A51G U70C,0.95
18,U49A A78U,0.33
19,G50U A116G,0.75
20,A52G A111C,0
21,G48A U124A,0.41
22,A52C A90G,0.58
23,A51G A64G,1.42
24,A51G A64U,1.75

row,Variant,self-cleavage
1,U49C A66G,1.55
2,A51U A62U,1.15
3,A51U A62G,1.48
4,U49C A67G,1.2
5,A51G A114G,1.1
6,A52C A54G,1.34
7,U49A A51G,1.02
8,A51G A129C,0.98
9,A51G A129G,1.11
10,U49C U70A,1.1
11,U49C A89G,1.26
12,U49C A89C,1.36
13,A51G A86U,1.56
14,A51G A86C,0.65
15,U49C A140G,2.12
16,U49C A90G,0.94
17,G48A U130C,0.82
18,A52G A60C,0.73
19,A51G A94U,1.78
20,A51U C101U,0.72
21,A51C U72A,0.19
22,U49A G74A,0.24
23,A51G U127A,2.09
24,A51G U127C,1.04

row,Variant,self-cleavage
1,U49C U130A,0.28
2,A52G A92G,1.34
3,A52G A92U,1.52
4,U49C A114C,0.03
5,U49C A114G,0.42
6,A51C A67G,0.66
7,A51U U127A,1.75
8,A51U U127C,0.76
9,A51G G106A,0
10,A52G A56G,0.76
11,A51G A110G,0.08
12,A51G A135U,0.7
13,A51U U87A,1.92
14,U49A U72G,0.14
15,A52G A95U,1.37
16,A52G A95G,2.12
17,U49C C76U,0.07
18,A51C G99A,0.94
19,U49C G137U,2.29
20,U49C G137A,1.95
21,U49G U108C,0.01
22,A51G A91U,1.61
23,G50A G138A,1.51
24,U49C A52G,1.16

row,Variant,self-cleavage
1,A51C A117U,1.28
2,U49G U132C,1.1
3,G50U A114U,0.08
4,A51G U87G,0.43
5,A51G G83U,0.7
6,A51G G83A,1.42
7,U49G A114G,0.06
8,A51U U57G,0.64
9,A51U U131A,1.32
10,G50A U87A,1.75
11,U49A A98C,1.58
12,A51U A64G,1.28
13,A51G A98G,0.29
14,A51G U139A,1.48
15,A52G A54G,1.41
16,U49G U122C,0.39
17,U49G U122A,1.35
18,G48A A126G,1.15
19,G48A A126U,1.9
20,G48A U108A,0.01
21,U49A A90G,0.81
22,A51G G73A,0.26
23,U49A A60G,1.32
24,A51U U139A,1.14

row,Variant,self-cleavage
1,U49C A68C,1.29
2,U49C A68U,1.95
3,U49C A82G,0.42
4,U49C A82U,0.2
5,A52C A68G,0.55
6,U49C U108A,0.01
7,U49A A140G,1.41
8,U49C U97A,2.12
9,U49G A60G,0.64
10,A51G A54U,1.4
11,G48C A92U,1.18
12,A51U A54G,1.36
13,A51U G74U,0.25
14,A52G A110G,0.17
15,U49C G75A,0.04
16,G50A A52G,2.63
17,U49A A69U,1.92
18,G48U U102C,1.31
19,U49G U139C,1.49
20,U49G U139A,1.7
21,U49G U139G,1.58
22,A51U A63G,1.62
23,U49C A118G,0.35
24,U49C A118U,0.62

row,Variant,self-cleavage
1,A52C G75U,0.33
2,U49C A59C,0.9
3,U49C A59U,1.24
4,U49C A59G,0.7
5,A51G A78G,0.2
6,A51U A66G,2.03
7,A52G A55C,1.29
8,A52G A55U,1.51
9,U49C A129G,1.82
10,A52G A62C,1.53
11,U49G A118G,1.14
12,U49C U120A,1.64
13,U49C U120C,0.52
14,A52G A86U,1.33
15,A52G A86C,0.77
16,G48C A67G,1.37
17,A52C A140G,1.87
18,A51C A52G,1.83
19,U49C A60G,1.24
20,U49C U122A,1.33
21,U49C U122G,1.54
22,A51U A95G,2
23,U49G A116G,0.64
24,G50A U133C,1.88

row,Variant,self-cleavage
1,A51C U127C,1.02
2,A51C U127A,2.59
3,U49C U57C,0.57
4,U49C U57A,1.03
5,G48A A110G,0.12
6,U49G A90G,0.75
7,U49C C128A,1.11
8,U49C A56G,1.57
9,U49C A56C,1.25
10,U49A U87C,0.22
11,U49A U87A,1.78
12,A51G U120G,2.37
13,U49A U102A,0.95
14,U49C A126G,1.26
15,U49C U124C,0.71
16,G48A G73A,0.22
17,A51G G65A,1.12
18,U49C G104A,0.04
19,A52C A117G,1.22
20,A51G A55C,0.42
21,A52C A60G,1
22,A51G U72G,0.25
23,A51G U72C,0.38
24,U49G A69G,0.88

row,Variant,self-cleavage
1,A52C U108C,0.03
2,U49C G74A,0.09
3,G50U,1.11
4,G50A,1.68
5,G50C,1.54
6,U49C A95G,1
7,U49C C121G,2.4
8,A51U G83A,2.1
9,U49G U102C,1.95
10,A51G C76A,0.07
11,A51U A67G,1.23
12,A51U A67U,2.12
13,A51U C76U,0.33
14,U49G A68G,1.76
15,G50A A63G,1.21
16,U49A A116G,0.3
17,A52G A96G,1.64
18,U49G A54G,1.61
19,A51U A117G,2.45
20,U49A A135G,1.08
21,A51G U100A,0.56
22,A51G U100C,1.87
23,A51G A68G,0.71
24,A51G A68C,1.46

row,Variant,self-cleavage
1,A51G A68U,1.9
2,U49C A63G,1.75
3,A52C U131C,1.53
4,U49C G138A,1.86
5,U49A A62U,1.92
6,A51G U130G,0.67
7,A51G U130A,1.63
8,U49A G79A,0.12
9,A51U G58U,1.45
10,A52G A91G,1.01
11,U49C A64G,2.02
12,U49A U108C,0.01
13,U49A U108A,0.02
14,G48A A92U,1.62
15,U49C C109U,0.18
16,U49C U139A,1.15
17,U49A A89G,0.47
18,U49C U132A,1.65
19,A51C A78G,0.24
20,A51G G138C,1.66
21,A51C U124C,0.98
22,A51U U100C,2.13
